Results on 2 molecules are retold here after PMC2798008.

The target in this data set is T1, SaeRHis (Staphylococcus aureus USA300, UniProt Q2FIT4 1-228).
T1 sequence: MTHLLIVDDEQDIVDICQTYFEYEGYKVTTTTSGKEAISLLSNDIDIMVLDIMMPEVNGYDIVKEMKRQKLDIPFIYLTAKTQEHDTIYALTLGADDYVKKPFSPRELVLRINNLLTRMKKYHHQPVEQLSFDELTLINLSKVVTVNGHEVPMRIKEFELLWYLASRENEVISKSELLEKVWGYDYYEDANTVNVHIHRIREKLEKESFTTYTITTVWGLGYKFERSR
Description: EMSA. (Mobility shift assays separate free from complexed probe on a gel.)

B1: sbi promoter (dsDNA)
DNA 1: CACTAGTTAATCTATTAGTTAACATTAGTTAATAATTAGTTAATTTCCAT
DNA 2: ATGGAAATTAACTAATTATTAACTAATGTTAACTAATAGATTAACTAGTG
In the case of B1, the binding result is “binds”.

B2: agrB promoter (dsDNA)
DNA 1: ATTTAACAGTTAAGTATTTATTTCCTACAGTTAGGCAATATAATGATAAA
DNA 2: TTTATCATTATATTGCCTAACTGTAGGAAATAAATACTTAACTGTTAAAT
For the molecule B2, the binding result is given as “no binding”.
